# Test results from US20220127355A1 (INTEGRAL MOLECULAR, published 2022).
# Numbering of substitutions follows the chain as printed.
# B1: IM271 (antibody, V domains shown)
# VH: EVQLLESGGGLVQPGGSLRLSCAASGFTFSSYAMSWVRQAPGKGLEWVAGISSSGRYTGYADSVKGRFTISRDNSKNTLYLQMNSLRAEDTAVYYCAKSVGNGNSWSGYIATSIDAWGQGTLVTVSS
# VL: SYELTQPPSVSVSPGQTARITCSGGSGSYGWYQQKPGQAPVLVIYGTNKRPSGIPERFSGSSSGTTVTLTISGVQAEDEADYYCGSADSSTNAGIFGGGTKLTVL
# B2: IM172 (antibody, V domains shown)
# VH: AVTLDESGGGLQTPGGALSLVCKGSGFSISSYTMQWVRQAPGKGLEWVAGIYSGSRTYYGAAVQGRATISRDNGQSTVRLQLNNLRAEDTGTYYCAKSSYCTAWTGCDVYAGGSIDAWGHGTEVIVSS
# VL: ALTQPSSVSATPGGTVEITCSGDSSDDGSYYYGWYQQKSPGSAPVTVIYSNDKRPSSIPSRFSGSASGSTATLTITGVQADDEAVYFCGSYDSSTGIFGAGTTLTVL
# notes: Detected with anti-human IgG Fc secondary
# B3: IM136 (antibody, V domains shown)
# VH: AVTLDESGGGLQTPGGVLSLVCKASGFSFSSYDMGWVRQAPGKGLEWVASIYSSASSTYYAPAVKGRATITRDNGQSTVRLQLNNLRAEDTGTYYCAKAAGRTYRGWATYIADSIDAWGHGTEVIVSS
# VL: ALTQPSSVSANPGESVEITCSGDSSWYGYGWYQQKSPGSAPVTLIYESGKRPSDIPSRFSGSTSGSTATLTITGVQADDEAVYYCGSADSNSIGIFGAGTTLTVL
# notes: as for B2
# B4: IM-271-1HBF (antibody, V domains shown)
# VH: B1 VH with S35N, N102S, N104V, I110V
# VL: B1 VL with G24A, S28L
# notes: also called CH-HAMF5-1HBF
# B5: IM-271-1HEP (antibody, V domains shown)
# VH: B1 VH with S35N, N102S, N104V, I110V, I114L
# VL: B1 VL with G24A, S28L
# notes: T0003 prints the label CH-HAMF5-MEP; Tied by the suffix only; also called CH-HAMF5-1HEP; CH-HAMF5-MEP
# B6: IM-271-1HAQ (antibody, V domains shown)
# VH: B1 VH with I110V
# VL: B1 VL
# notes: also called CH-HAMF5-1HAQ
# B7: IM-271-1HHR (antibody, V domains shown)
# VH: B1 VH with S35N, V100M, N102S, N104V, I110V, I114L, A116V
# VL: B1 VL with N48Y
# notes: also called CH-HAMF5-1HHR
# B8: IM-271-1HFB (antibody, V domains shown)
# VH: B1 VH with S35N, V100M, N102S, N104V, I110V
# VL: B1 VL with N48Y
# notes: also called CH-HAMF5-1HFB
# B9: IM-271-1HHP (antibody, V domains shown)
# VH: B1 VH with S35N, N102S, N104V, I110V, I114L, A116V
# VL: B1 VL with N48Y
# notes: also called CH-HAMF5-1HHP
# B10: IM-271-1HGT (antibody, V domains shown)
# VH: B1 VH with S35N, N102S, N104V, I110V, I114L, A116V
# VL: B1 VL with G24A, S28L, A87N, S89A
# notes: also called CH-HAMF5-1HGT
# B11: IM-271-1HFJ (antibody, V domains shown)
# VH: B1 VH with S35N, V100M, N102S, N104V, I110V, A116V
# VL: B1 VL with G24A, S28L
# notes: also called CH-HAMF5-1HFJ
# B12: IM-271-1HBG (antibody, V domains shown)
# VH: B1 VH with S35N, V100M, N102S, N104V, I110V
# VL: B1 VL with G24A, S28L
# notes: also called CH-HAMF5-1HBG
# B13: IM-35-N2H07-1HA (antibody, V domains shown)
# VH: EVQLLESGGGLVQPGGSLRLSCAASGFTFSGYAMSWVRQAPGKGLEWVAGIYSSGSYTFYADSVKGRFTISRDNSKNTLYLQMNSLRAEDTAVYYCAKGTGYCDWSGWCYSGAANIDAWGQGTLVTVSS
# VL: SYELTQPPSVSVSPGQTARITCSGGSGSYGYYGWYQQKPGQAPVLVIYGTNKRPSGIPERFSGSSSGTTVTLTISGVQAEDEADYYCGSEDSSSGAGIFGGGTKLTVL
# B14: IM-35-N1F09-1HA (antibody, V domains shown)
# VH: EVQLLESGGGLVQPGGSLRLSCAASGFTFSSYGMSWVRQAPGKGLEWVAGIGSSGIYTHYADSVKGRFTISRDNSKNTLYLQMNSLRAEDTAVYYCAKSPGDSDWCGWAGYGIYSCRVAGFIDAWGQGTLVTVSS
# VL: SYELTQPPSVSVSPGQTARITCSGGYNGHYGWYQQKPGQAPVLVIYGTNKRPSGIPERFSGSSSGTTVTLTISGVQAEDEADYYCGGYDSSAGIFGGGTKLTVL
# B15: IM180 (antibody, V domains shown)
# VH: B1 VH with T28D, S35N, S52G, S54T, R56S, Y57S
# VL: SYELTQPPSVSVSPGQTARITCSGGSSGYGWYQQKPGQAPVLVIYSNDKRPSGIPERFSGSSSGTTVTLTISGVQAEDEADYYCGSTDNSYVGIFGGGTKLTVL
# notes: Produced with its natural light chain
# B16: IM180 w/ F10h cLC (antibody, V domains shown)
# VH: B1 VH with T28D, S35N, S52G, S54T, R56S, Y57S
# VL: B14 VL with G47S, T48N, K50Q
# notes: IM180 heavy chain paired with the common light chain F10h
# B17: IM271 w/ F10h cLC (antibody, V domains shown)
# VH: B1 VH
# VL: B14 VL with G47S, T48N, K50Q
# notes: IM271 heavy chain paired with the common light chain F10h
# Molecular target: T1, Claudin 6 (human) (human, UniProt P56747 1-220)
# T1 construct: Expressed on transfected HEK-293T cells or naturally on PA-1 cells for flow cytometry; For the Octet KD values it was the intact protein embedded in virus-like particles (lipoparticles); also called hsCLDN6; CLDN6
# T1 chain: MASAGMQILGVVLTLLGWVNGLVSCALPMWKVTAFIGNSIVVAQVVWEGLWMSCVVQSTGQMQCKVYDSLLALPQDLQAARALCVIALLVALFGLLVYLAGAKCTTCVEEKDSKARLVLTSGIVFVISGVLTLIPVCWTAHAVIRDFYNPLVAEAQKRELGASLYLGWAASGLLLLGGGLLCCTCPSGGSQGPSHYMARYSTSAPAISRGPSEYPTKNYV
# Test: flow cytometry, HEK-293T cells transfected with plasmids for the indicated proteins; pUC = empty vector control
row,Binder,EC50 (read off the curve) [µg/mL]
1,B1,~0.4

# Molecular target: T2, Claudin 9 (UniProt O95484 1-217)
# T2 construct: Octet KD values: intact claudin protein embedded in virus-like particles (lipoparticles); also called CLDN9
# T2 sequence (looked up): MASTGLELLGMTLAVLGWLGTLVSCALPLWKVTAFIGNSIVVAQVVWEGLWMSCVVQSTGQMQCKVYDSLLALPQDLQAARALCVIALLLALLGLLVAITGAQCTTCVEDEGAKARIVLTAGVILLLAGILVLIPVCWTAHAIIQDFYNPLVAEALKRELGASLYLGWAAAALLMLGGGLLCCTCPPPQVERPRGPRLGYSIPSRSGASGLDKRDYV
# Test: biosensor (Forte Octet), intact claudin in virus-like particles (lipoparticles)
# Method: Affinity of various antibodies against CLDN6 as compared to CLDN9, CLDN3, and CLDN4 was measured using a biosensor. Biosensor affinity measurement of the various antibodies against the proteins was determined using a Forte Octet, which was used for biosensor measurements, using intact claudin proteins embedded in virus-like particles (lipoparticles). The KD for different antibodies is shown below.
row,Binder,Kd [nM]
1,B2,81
2,B3,386

# Molecular target: T3, Claudin 3 (UniProt O15551 1-220)
# T3 construct: also called CLDN3
# T3 sequence (looked up): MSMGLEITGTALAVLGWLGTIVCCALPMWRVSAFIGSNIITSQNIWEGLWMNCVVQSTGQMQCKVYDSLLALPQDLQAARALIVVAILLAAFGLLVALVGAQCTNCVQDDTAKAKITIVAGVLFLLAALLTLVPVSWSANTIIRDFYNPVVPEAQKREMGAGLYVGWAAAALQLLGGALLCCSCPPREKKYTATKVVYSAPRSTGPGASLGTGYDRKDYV
# Test: flow cytometry, HEK-293T cells transiently transfected with the indicated claudin; pUC19 = empty vector control
# Method: (§1) FIG. 2 illustrates the results of a binding assay showing that Claudin 6 MAbs bind to human Claudin 6 preferentially over other Claudin proteins. Human embryonic kidney 293T (HEK-293T) cells were transiently transfected with DNA for the indicated Claudin protein or empty vector along with GFP (pUC) for 22 hours.
row,Binder,binding result
1,B3,no binding (tested: log [mAb] about -7.2 M)

# Molecular target: T4, Claudin 4 (UniProt O14493 1-209)
# T4 construct: also called CLDN4
# T4 sequence (looked up): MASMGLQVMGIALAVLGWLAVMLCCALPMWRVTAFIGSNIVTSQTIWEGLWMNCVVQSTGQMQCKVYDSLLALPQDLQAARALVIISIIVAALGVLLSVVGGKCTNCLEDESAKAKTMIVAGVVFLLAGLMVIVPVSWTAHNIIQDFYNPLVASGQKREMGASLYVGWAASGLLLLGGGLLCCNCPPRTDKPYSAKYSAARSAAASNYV
# Test: as above
# Method: as §1
row,Binder,binding result
1,B3,no binding (tested: log [mAb] about -7.2 M)

# Molecular target: T1, Claudin 6 (human)
# Test: binding assay of the 13th table, method not described
row,Binder,EC50 [nM]
1,B4,< 4
2,B1,< 4
3,B5,< 4
4,B6,< 4
5,B7,< 4
6,B8,< 4
7,B9,< 4
8,B10,< 4
9,B11,< 4
10,B12,< 4
11,B13,< 4
12,B14,< 4

# Molecular target: T1, Claudin 6 (human)
# Test: flow cytometry, 66 nM MAb on HEK-293T cells expressing claudin6
# Method: Expression and Binding of claudin6 MAbs. Claudin 6 MAbs produced using their natural light chain, or produced using a different light chain. Yield represents the preparation of the purified MAb and ug of protein resulting from the preparation. Binding represents 66 nM of the indicated MAb binding to HEK-293T cells expressing the target claudin6. The Controls represents the same MAbs staining HEK-293T cells not transfectedwith claudin6. Staining was detected by flow cytometry (geometric mean fluorescence). N/A, not available.
row,Binder,Binding (geometric mean fluorescence)
1,B15,46900 geometric mean fluorescence
2,B16,10100 geometric mean fluorescence
3,B1,63000 geometric mean fluorescence
4,B17,160000 geometric mean fluorescence
